How the values were obtained:
[1] = target: Murine GP130 ectodomain with C-terminal biotin acceptor peptide, biotinylated (murine) (UniProt Q00560); test: SPR
[2] = target: Murine IL-27Rα ectodomain (amino acids 28-224), N-terminally biotinylated (murine) (UniProt O70394); test: SPR
Chain of Murine IL-27Rα ectodomain (amino acids 28-224), N-terminally biotinylated (murine) (O70394 28-224): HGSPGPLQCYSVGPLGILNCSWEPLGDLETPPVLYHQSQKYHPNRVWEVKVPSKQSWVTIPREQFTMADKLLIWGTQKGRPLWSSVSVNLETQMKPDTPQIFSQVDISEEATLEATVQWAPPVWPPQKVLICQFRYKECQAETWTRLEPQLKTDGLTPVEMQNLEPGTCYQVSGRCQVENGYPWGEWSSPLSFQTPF

Chain of Murine GP130 ectodomain with C-terminal biotin acceptor peptide, biotinylated (murine) (Q00560 23-319): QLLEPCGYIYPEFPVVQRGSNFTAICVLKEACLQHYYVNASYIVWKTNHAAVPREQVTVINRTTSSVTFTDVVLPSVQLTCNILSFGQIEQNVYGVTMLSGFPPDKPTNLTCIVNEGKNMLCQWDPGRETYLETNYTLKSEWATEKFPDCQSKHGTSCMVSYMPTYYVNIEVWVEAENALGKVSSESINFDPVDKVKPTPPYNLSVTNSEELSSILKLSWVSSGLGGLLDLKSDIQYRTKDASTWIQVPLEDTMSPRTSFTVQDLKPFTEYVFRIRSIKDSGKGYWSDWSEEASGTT

Murine IL-27, linker-connected single-chain variant (p28+EBI3) (ligand)
Kd [1]: 3.1 nM
Kd [2]: 0.29 nM

Source: doi:10.1101/2022.02.18.481027
